Peptide text beside a SMILES is read from it.
B1: Sfp: PPTase from Bacillus subtilis (protein)
chain: MKIYGIYMDRPLSQEENERFMSFISPEKREKCRRFYHKEDAHRTLLGDVLVRSVISRQYQLDKSDIRFSTQEYGKPCIPDLPDAHFNISHSGRWVICAFDSQPIGIDIEKTKPISLEIAKRFFSKTEYSDLLAKDKDEQTDYFYHLWSMKESFIKQEGKGLSLPLDSFSVRLHQDGQVSIELPDSHSPCYIKTYEVDPGYKMAVCAAHPDFPEDITMVSYEELL
modifications: left off: small tags and cut ends
notes: PPTase from Bacillus subtilis
B2: PptT: PPTase from Mycobacterium tuberculosis (protein)
chain: MTVGTLVASVLPATVFEDLAYAELYSDPPGLTPLPEEAPLIARSVAKRRNEFITVRHCARIALDQLGVPPAPILKGDKGEPCWPDGMVGSLTHCAGYRGAVVGRRDAVRSVGIDAEPHDVLPNGVLDAISLPAERADMPRTMPAALHWDRILFCAKEATYKAWFPLTKRWLGFEDAHITFETDSTGWTGRFVSRILIDGSTLSGPPLTTLRGRWSVERGLVLTAIVL
modifications: left off: small tags and cut ends
notes: PPTase from Mycobacterium tuberculosis
B3: BpsA: single module non-ribosomal peptide synthetase from Streptomyces lavendulae, SEQ ID NO:2 (protein, listed as Streptomyces lavendulae)
chain: MTLQETSVLEPTLQGTTTLPGLLAQRVAEHPEAIAVAYRDDKLTFRELASRSAALADYLEHLGVSADDCVGLFVEPSIDLMVGAWGILNAGAAYLPLSPEYPEDRLRYMIENSETKIILAQQRLVSRLRELAPKDVTIVTLRESEAFVRPEGTEAPAARSARPDTLAYVIYTSGSTGKPKGVMIEHRSIVNQLGWLRETYAIDRSKVILQKTPMSFDAAQWEILSPANGATVVMGAPGVYADPEGLIETIVKHNVTTLQCVPTLLQGLIDTEKFPECVSLQQIFSGGEALSRLLAIQTTQEMPGRALINVYGPTETTINSSSFPVDPADLDEGPQSISIGSPVHGTTYHILDKETLKPVGVGEIGELYIGGIQLARGYLHRDDLTAERFLEIELEEGAEPVRLYKTGDLGQWNNDGTVQFAGRADNQVKLRGYRVELDEISLAIENHDWVRNAAVIVKNDGRTGFQNLIACIELSEKEAALMDQGNHGSHHASKKSKLQVKAQLSNPGLRDDAELAARPAFDLEGAEPTPEQRARVFARKTYRFYEGGAVTQADLLGLLGATVTAGYSRKAADLAPAELGQILRWFGQYISEERLLPKYGYASPGALYATQMYFELEGVGGLKPGYYYYQPVRHQLVLISEREATGKATAQIHFIGKKSGIEPVYKNNILEVLEIETGHMVGLFEQILPAYGLDIHDRAYEPAVKDLLDVADEDYYLGTFELVPHAGARDDQAEVYVQTHGGKVAGLPEGQYRYENGELTRFSDDIVLKKHVIAINQSVYQAASFGISVYSRAEEEWLKYITLGKKLQHLMMNGLNLGFMSSGYSSKTGNPLPASRRMDAVLGANGVDSAPMYFFVGGRISDEQIGHEGMREDSVHMRGPAELIRDDLVSFLPDYMIPNRVVVFDRLPLSANGKIDVKALAASDQVNAELVERPFVAPRTETEKEIAAVWEKALRRENASVQDDFFESGGNSLIAVGLVRELNARLGVSLPLQSVLESPTIEKLARRLEREVAQESSRFVRLHAETGKARPVICWPGLGGYPMNLRSLAGEIGLGRSFYGVQSYGINEGETPYETITEMAKKDIEALKEIQPAGPYTLWGYSFGARVAFETAYQLEQAGEKVDNLFLIAPGSPKVRAENGKVWGREASFANRGYTTILFSVFTGTISGPDLDRCLETVTDEASFAEFISELKGIDVDLARRIISVVGQTYEFEYSFHELAERTLQAPISIFKAVGDDYSFLENSSGYSAEPPTVIDLDADHYSLLREDIGELVKHIRYLLGE

Columns and labels:
BpsA [1] = target: T1, BpsA (Streptomyces lavendulae, UniProt Q1MWN4); assay: BpsA-mediated synthesis of indigoidine-related pigments from glutamine analogues; assay type: biochemical; conditions: 4 mM substrate, 1.66 μM BpsA, 25° C., 72 hours
Experimental: For these experiments, BpsA activation was carried out as noted in Example 1. Pre-activated BpsA was incubated at 25° C. for 72 hours in reaction buffer amended with 4 mM of either L-glutamine, L-glycine-L-glutamine (glycyl glutamine), L-alanine-L-glutamine (alanyl glutamine), N-trifluoracetyl-L-glutamine, or no substrate as a control. Pre-activated and buffered BpsA at a final concentration of 1.66 μM was added to a reaction buffer containing 4 mM of each L-glutamine derivative in a final reaction volume of 1000 μL. This was then incubated al 25° C. for 72 hours. Each reaction tube was centrifuged and the supernatant removed. The indigoidine derivatives were then resuspended in 100 μL of 99.9% DMSO to solubilise the precipitated pigment.
The structures of each substrate and the predicted structure of the cyclised indigoidine-like product potentially produced in each reaction are depicted in FIGS. […]. […] The relative absorbance levels of each reaction at the end of the 72 hour incubation period are illustrated in FIG. 8E.

BpsA [2] = target: T1, BpsA; assay: Activation of apo-BpsA to holo-BpsA by PPTase, read out as indigoidine synthesis (A590); assay type: biochemical; conditions: in vitro, purified His6-tagged PPTase
Experimental: Apo-BpsA was converted to holo-BpsA in vitro, post-purification, as follows. Purified BpsA and Sfp were obtained by standard Ni/NTA chromatography following their expression as His6-tagged recombinant polypeptides. The bpsA and sfp genes were cloned into and expressed from plasmid pET28a+ in E. coli BL21 (DE3) cells, as described for BpsA and other PPTases by Owell et al (2011), with the modification that BpsA expression and purification was performed in an entD gene-deleted strain of E.coli BL21(DE3). This was done to avoid any activation of BpsA by endogenous EntD PPTase prior to BpsA purification.
Reagents were added to a 15 ml tube. This was vortexed for two seconds and transferred to a 30° C. shaking incubator (200 rpm) for 20 minutes to enable 4′-PP attachment to occur. A negative control was set up in the same manner, omitting Sfp and adding 88.16 μL of ddH2O instead of 84.48 μL of ddH2O.
Indigoidine synthesis reactions were performed in triplicate in a 96 well plate to assess whether activated BpsA was generated. For these reactions, 50 μL of 50 mM Tris-HCl, 10 mM MgCl2 in ddH2O was added to each of six wells. […] The 96 well plate was shaken at 1000 rpm and the A590 values (absorbance at 590 nm) were recorded for each well every twenty seconds for 60 minutes. […]

[3] = BpsA functionality (indigoidine synthesis from L-glutamine) in the presence of DMSO; assay type: biochemical
Experimental: In these experiments, samples of 500 μM L-glutamine were prepared in ddH2O amended with DMSO to a final DMSO concentration (v/v) of either 0%, 10%, 20%, 30% or 35%. A master mix with final reagent concentrations as indicated in Table 5 was prepared and dispensed into 18 wells of a fresh 96 well plate at a volume of 20 μL per well.
To test whether full L-glutamine conversion had been achieved in the presence of DMSO, 180 μL of DMSO heated to 50° C. was then added to each well to completely solubilise the indigoidine. The 96 well plate was then incubated at room temperature with shaking at 2500 rpm for 10 minutes. Following this, a single A590 reading was taken and the average of the triplicate values were graphed (FIG. 5B).

[4] = Stability of BpsA over time on storage; assay type: physicochemical; conditions: 24 weeks
Experimental: To monitor stability of Bps A over time after storage at these conditions, two BpsA samples were stored, one at 25° C. and one at 4° C. The two samples were then compared to recently purified BpsA. The BpsA stored at 4° C. retained 96% activity and the BpsA stored at 25° C. retained 15% activity after 24 weeks compared to the recently purified BpsA.

Molecule	Pigment formation by pre-activated BpsA from the substrate (BpsA [1])	Ability of PPTase to activate BpsA (BpsA [2])	also measured
NC(=O)CC[C@H](NC(=O)C(F)(F)F)C(=O)O [N-trifluoroacetyl-L-glutamine]	used to produce indigoidine-like pigments	–	–
C[C@H](N)C(=O)N[C@@H](CCC(N)=O)C(=O)O [alanyl glutamine, L-alanine-L-glutamine] (H-Ala-Gln-OH)	used to produce indigoidine-like pigments	–	–
NCC(=O)N[C@@H](CCC(N)=O)C(=O)O [glycyl-glutamine, L-glycine-L-glutamine] (H-Gly-Gln-OH)	used to produce indigoidine-like pigments	–	–
B1	–	effective means of pre-activating BpsA	–
B2	–	similarly able to activate BpsA	–
B3	–	–	BpsA activity in the presence of DMSO ([3]; 0-35% DMSO v/v, end-point A590 after full solubilisation): impaired at all concentrations of DMSO; DMSO concentration up to which BpsA retains partial functionality ([3]; 500 μM L-glutamine, DMSO v/v): up to 35%; Activity retained compared to recently purified BpsA ([4]; stored at 4° C.): 96%; Activity retained compared to recently purified BpsA ([4]; stored at 25° C.): 15%

— US10725049B2, “Methods of detecting and measuring glutamine and analogues thereof, and methods related thereto” (Victoria Link Limited, priority 2013, dated 2020)
